Two substances from patent publication US20240157023A1 can be followed below.

The target of test [1] is αvβ3 integrin on human lung fibroblasts (human) (UniProt P06756). Put plainly: cell-based or functional assay.
Test [2] deals with α5β1 integrin on human lung fibroblasts (human) (UniProt P08648). As to the kind of experiment: cell-based or functional assay.
UniProt P08648, sequence (P08648 42-1049, chain 1 of 2): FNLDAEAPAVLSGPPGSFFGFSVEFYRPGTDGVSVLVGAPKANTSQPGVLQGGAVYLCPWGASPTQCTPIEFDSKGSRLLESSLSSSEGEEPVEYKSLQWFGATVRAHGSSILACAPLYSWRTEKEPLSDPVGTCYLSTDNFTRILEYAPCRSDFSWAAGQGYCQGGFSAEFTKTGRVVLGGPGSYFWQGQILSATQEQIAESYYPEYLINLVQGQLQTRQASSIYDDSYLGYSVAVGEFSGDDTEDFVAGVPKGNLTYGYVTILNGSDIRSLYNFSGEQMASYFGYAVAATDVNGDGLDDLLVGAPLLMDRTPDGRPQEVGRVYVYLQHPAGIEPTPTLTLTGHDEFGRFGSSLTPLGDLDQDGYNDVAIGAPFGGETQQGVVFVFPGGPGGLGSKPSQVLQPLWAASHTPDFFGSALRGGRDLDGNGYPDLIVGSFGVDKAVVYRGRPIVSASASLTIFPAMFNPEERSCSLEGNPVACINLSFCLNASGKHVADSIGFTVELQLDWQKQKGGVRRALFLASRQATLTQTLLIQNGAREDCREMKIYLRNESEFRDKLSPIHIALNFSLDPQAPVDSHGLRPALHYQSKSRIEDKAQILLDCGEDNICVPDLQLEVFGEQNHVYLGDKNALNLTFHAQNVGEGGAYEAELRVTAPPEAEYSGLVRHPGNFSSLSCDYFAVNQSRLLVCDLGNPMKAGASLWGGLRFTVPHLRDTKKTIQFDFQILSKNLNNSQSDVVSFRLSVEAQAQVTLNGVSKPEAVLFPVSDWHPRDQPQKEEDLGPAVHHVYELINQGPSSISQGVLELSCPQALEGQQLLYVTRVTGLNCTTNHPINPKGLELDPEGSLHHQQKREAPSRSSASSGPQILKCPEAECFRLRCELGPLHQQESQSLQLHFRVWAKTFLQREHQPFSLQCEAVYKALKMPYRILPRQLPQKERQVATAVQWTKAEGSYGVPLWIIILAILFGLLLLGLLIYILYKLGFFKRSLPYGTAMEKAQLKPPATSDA
UniProt P08648, sequence (P05556 21-798, chain 2 of 2, further chain): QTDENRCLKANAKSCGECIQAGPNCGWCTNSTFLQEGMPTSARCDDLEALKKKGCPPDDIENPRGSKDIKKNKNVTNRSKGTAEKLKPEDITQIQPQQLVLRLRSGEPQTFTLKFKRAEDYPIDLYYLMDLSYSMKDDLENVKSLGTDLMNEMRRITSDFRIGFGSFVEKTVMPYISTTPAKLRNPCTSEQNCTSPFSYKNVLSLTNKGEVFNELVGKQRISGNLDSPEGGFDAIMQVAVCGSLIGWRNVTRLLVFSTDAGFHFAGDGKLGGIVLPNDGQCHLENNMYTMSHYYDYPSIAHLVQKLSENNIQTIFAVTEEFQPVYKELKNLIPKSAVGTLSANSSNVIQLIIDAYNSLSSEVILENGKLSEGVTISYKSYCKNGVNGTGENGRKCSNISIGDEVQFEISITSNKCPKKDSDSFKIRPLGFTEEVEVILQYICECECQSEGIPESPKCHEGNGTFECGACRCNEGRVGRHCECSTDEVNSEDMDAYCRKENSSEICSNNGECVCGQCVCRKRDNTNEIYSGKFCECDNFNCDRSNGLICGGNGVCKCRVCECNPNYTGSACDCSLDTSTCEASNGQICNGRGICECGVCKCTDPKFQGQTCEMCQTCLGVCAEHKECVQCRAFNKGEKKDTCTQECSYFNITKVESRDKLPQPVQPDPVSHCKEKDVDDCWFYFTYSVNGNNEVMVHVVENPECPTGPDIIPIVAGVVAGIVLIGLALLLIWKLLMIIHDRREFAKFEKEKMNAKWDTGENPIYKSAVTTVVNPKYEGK

UniProt P06756, sequence (P06756 31-1048, chain 1 of 2): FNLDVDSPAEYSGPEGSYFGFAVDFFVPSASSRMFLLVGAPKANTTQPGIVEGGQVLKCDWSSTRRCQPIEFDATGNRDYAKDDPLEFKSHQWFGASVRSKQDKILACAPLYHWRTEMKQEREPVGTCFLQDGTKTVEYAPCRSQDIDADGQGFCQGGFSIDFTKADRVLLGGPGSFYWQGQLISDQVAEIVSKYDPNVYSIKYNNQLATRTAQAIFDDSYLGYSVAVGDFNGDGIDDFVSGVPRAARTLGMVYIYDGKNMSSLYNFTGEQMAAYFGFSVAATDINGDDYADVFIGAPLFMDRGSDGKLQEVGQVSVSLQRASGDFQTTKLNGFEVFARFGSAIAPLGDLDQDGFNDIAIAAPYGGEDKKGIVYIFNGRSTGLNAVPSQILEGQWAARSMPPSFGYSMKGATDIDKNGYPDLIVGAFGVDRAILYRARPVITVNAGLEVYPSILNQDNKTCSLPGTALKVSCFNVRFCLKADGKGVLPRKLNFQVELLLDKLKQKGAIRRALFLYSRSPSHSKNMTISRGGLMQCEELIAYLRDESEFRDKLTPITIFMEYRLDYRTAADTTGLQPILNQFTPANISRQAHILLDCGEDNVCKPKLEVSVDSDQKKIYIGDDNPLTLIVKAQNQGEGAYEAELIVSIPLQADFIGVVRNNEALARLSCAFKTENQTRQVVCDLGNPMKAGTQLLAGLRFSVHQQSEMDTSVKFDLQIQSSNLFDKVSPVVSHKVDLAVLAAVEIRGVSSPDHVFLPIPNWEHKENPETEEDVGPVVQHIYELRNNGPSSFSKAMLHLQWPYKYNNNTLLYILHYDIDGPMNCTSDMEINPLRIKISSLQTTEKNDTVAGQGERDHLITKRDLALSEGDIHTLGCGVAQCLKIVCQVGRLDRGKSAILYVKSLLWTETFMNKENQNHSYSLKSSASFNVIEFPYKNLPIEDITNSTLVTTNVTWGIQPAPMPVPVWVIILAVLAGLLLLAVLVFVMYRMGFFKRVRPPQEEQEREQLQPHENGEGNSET
UniProt P06756, sequence (P05106 27-788, chain 2 of 2, further chain): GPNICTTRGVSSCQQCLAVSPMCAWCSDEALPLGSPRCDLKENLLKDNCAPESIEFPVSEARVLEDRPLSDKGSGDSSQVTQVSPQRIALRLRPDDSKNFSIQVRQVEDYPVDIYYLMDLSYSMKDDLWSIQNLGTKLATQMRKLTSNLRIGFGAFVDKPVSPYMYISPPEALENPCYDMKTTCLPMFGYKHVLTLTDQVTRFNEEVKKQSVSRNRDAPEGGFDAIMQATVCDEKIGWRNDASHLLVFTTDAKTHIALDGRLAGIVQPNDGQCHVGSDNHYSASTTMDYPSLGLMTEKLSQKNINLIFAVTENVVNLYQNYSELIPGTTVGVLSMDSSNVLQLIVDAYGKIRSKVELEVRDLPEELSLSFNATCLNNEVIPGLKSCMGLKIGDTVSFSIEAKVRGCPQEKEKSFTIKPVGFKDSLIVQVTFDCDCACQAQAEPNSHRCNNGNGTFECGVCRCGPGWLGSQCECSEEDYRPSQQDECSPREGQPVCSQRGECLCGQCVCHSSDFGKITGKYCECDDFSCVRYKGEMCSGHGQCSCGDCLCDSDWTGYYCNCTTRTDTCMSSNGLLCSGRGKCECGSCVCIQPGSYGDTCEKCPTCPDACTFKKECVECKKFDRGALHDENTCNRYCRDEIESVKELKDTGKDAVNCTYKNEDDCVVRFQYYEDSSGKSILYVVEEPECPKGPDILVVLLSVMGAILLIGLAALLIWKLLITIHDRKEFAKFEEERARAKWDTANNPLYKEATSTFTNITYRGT

“Fn4G (recombinant fibronectin fragment of FnIII9 and FnIII10 with four glycine residues inserted in the linker region between them) (ligand)” returned a fibroblast spread area on soft elastic Fn4G hydrogels (3 days) in test [1] of 2060 µm^2.

In test [2], “Fn9*10 (recombinant fibronectin fragment of FnIII9 and FnIII10 with a leucine to proline point mutation at position 1408) (ligand)” gave an average fibroblast spread area on Fn9*10 hydrogels (all stiffness and viscoelasticity groups, 3 days) of 780 µm^2.
